Measured values from patent US12534533B2, “Anti-chemokine like receptor 1 humanized antibodies and their therapeutic applications” (OSE IMMUNOTHERAPEUTICS, priority 2019, dated 2026).
Entries after “also recorded” stand apart in the source; their conditions may differ.

Key:
[1] = test system: psoriasis induced by Aldara cream; format: in vivo, mice
Procedure: FIG. 6. Effect of anti-CMKLR1 agonist on an autoimmune disease such as mice psoriasis model. Aldara treated mice for 4 to 6 consecutive days were injected intra-peritoneally with: 2G1 (●) or isotype control antibody (x). A. thicknesses and B weight.
Aldara® cream which is known to induce psoriasis in mice was used on male C57Bl/6 mice (8-10-week old). Mice received a daily topical dose of Aldara. Treatments (anti-CMKLR1 agonist or control compound) were injected intra-peritoneally: […]

[2] = test system: Caspase-3 in PMN from healthy volunteers; assay: Caspase-3 expression in PMN by Western Blot; format: cell-based, human; settings: coated Ab at 10 μg/mL; 4 h, 6 h, 11 h; FIG. 26B
Procedure: (§1) Neutrophils were isolated from blood of healthy volunteers and cultured for 24 h (Mortality analysis), or 4 h, 6 h, 11 h (Caspase-3 assay), or 5 h (ROS assay) on coated Iso ctrl (cross), chimeric anti-ChemR23 2G1 (square) or different humanized versions of the 2G1 (diamonds). Mortality of PMN was analyzed by incubating PMN with specific markers of the mortality and viability and then counted by picture analysis.
PMN from healthy volunteers were incubated in culture medium with coated Ab at 10 μg/mL for different times and collected for Caspase-3 staining analyzed by Western Blot. The intensity of Capase-3 expression was calculated on WB.

[3] = test system: neutrophils and macrophages in exudates; assay: in vivo neutrophils apoptosis (sterile air and carrageenan, exudates)
Procedure: FIG. 27—in vivo neutrophils apoptosis —A) Experimental proceedings—B) ChemR23 expression C) neutrophils frequency in exudates D) macrophages frequency in exudates G) neutrophils mortality F) Ratio dead/living neutrophils.
Sterile air was injected two times at d3 and d6 and inflammation was initiated with the injection of carrageenan. Exudates were collected at different times and stained for flow cytometry analysis.

[4] = test system: chronic colitis after CD45Rbhigh CD4 T cell transfer in Rag1 knock-out mice; assay: CD45Rb high T-cell transfer chronic colitis model; format: in vivo
Procedure: FIG. 19. Effect of an anti-CMKLR1 antibody in the CD45Rb^high T-cell transfer chronic colitis mouse model. A. Weight variation of treated animals was followed up to sixty days. Animals were treated with isotype control hIgG1 (x) or anti-CMKLR1 antibody (n). B. Histological staining of colon tissue in the mice treated with the anti-CMKLR1 (right) compared to control (left). C. Anatomic pathology scores used to calculate the severity of the pathology and the inflammation (inflammation score, vasculutis score, colon thickness and fibrotic colon wall). D. CD3 and Ly6G infiltration.
Method: CD45Rb^high CD4 T cells were isolated from the spleen of naive mice and sorted on an ARIA FACS after a negative selection of the CD4 T cells by magnetic sorting, then injected intraperitoneally at 0.5·10^6 cells in 100 μL of PBS into 6-weeks old female Rag1 knock-out mice. Anti-CMKLR1 antibody (2G1) or an isotype control were administered from day 32 after the CD45Rb^high CD4 T cell transfer for 3 weeks three times a week at 1 mg/kg. The follow-up of weight was evaluated three times a week and the weight variation was determined over the initial weight. * p<0.05, ** p<0.01.

[5] = test system: PMN from healthy volunteers; assay: Percentage of dead PMN (mortality of neutrophils) on coated antibodies; format: cell-based, human; settings: coated Ab at 10 μg/mL, 24 h; FIG. 26, FIG. 36
Procedure: […] Mortality of PMN was analyzed by incubating PMN with specific markers of the mortality and viability and then counted by picture analysis.
(§2) FIG. 36—Increase of dead PMN neutrophils in vitro with anti-ChemR23 antibodies coated. PMN from healthy volunteers were incubated in culture medium with coated HEF-LDT52S, HEF-LEF and HDLD antibody variants at 10 μg/mL for 24 h and stained either with a dead/viability kit (LIVE/DEAD (Invitrogen)). The percentages of positive cells were obtained by analyzing the pictures with Fiji software. Isotype control was added as control.
(§3) PMN from healthy volunteers were incubated in culture medium with coated Ab at 10 μg/mL for 24 h or 5 h and stained either with a dead/viability kit (LIVE/DEAD (Invitrogen)) or a specific marker of reactive oxygen species (ROS) respectively. The percentages of positive cells were obtained by analyzing the pictures with ImageJ software.
as §2, with “PMN” for “FIG. 36—Increase of dead PMN neutrophils in vitro with anti-ChemR23 antibodies coated. PMN”

[6] = test system: ROS production by PMN from healthy volunteers; assay: ROS test in PMN; format: cell-based, human; settings: coated Ab at 10 μg/mL, after 5 h; FIG. 26C
Procedure: as §1, §3

[7] = test system: MC38 cells; assay: MC38 colon carcinoma model; format: in vivo, mice; settings: 20 μg/injection i.p. for 3 weeks; vs isotype control; FIG. 9D
Procedure: FIG. 9. Effect of an anti-CMKLR1 antibody on 2 different colon carcinoma mice models. Two mice models were studied, and animals received isotype control antibody (3G8) (x) or anti-CMKLR1 (2G1) (□) at 20 μg/injection intraperitoneally for 3 weeks. A-C. Results in the CT26 colon carcinoma model comparing single treatment with p84 (A) and 2G1 (B) with combined therapy with both antibodies (C). D: Results in the MC38 colon carcinoma model.
8-week old C57bl/6J male mice were anesthetized with 3% of isoflurane. Mice were shaved on the flank and MC38 cells (0.5·10≢cells/mouse) cell lines were injected subcutaneously with an insulinic syringe (30 Gauges) in 50 μL of PBS. Another model was used, in which 8-week old Balb/c male mice were anesthetized with 3% of isoflurane. Mice were shaved on the flank and CT26 cells (1.10≢cells/mouse) were injected subcutaneously with an insulinic syringe (30 Gauges) in 50 μL of PBS.
The agonistic anti-CMKLR1 antibody (2G1) or an anti-SIRPa antibody (p84-anti-mouse SIRPa from Merck Millipore) (SIRPa is a new checkpoint inhibitor) were injected once a week (20 μg/injection) intraperitoneally for 3 weeks starting at d4 after tumor inoculation alone or combined.

B1: 2G1: parental chimeric anti-CMKLR1 antibody: heavy chain variable domain SEQ ID No. 37, light chain variable domain SEQ ID No. 49 (antibody, V domains shown)
VH: EVQLVASGGGLVQPGGSLKLSCAASGFTFSSYGMSWVRQTPDRRLELVATINRYGGSTYYPDSVKGRFTISRDNAKNTLYLQMSSLKSEDTAMYYCPRLIYYGNEGDSWGQGTTLTVSS
VL: QIVLTQSPAIMSASPGEKVTMTCSASSSVSFMHWYQQKSGTSPKRWIYDTTKLTSGVPARFSGSGSGTFYSLTISSMEAEDAATYYCQQWNSKPPLTFGPGTKLELKR
[1]; after Aldara administration, e.g. day 15, FIG. 6A
  thickness of the skin: reduces the thickness of the skin
[1]; mouse, in vivo
  weight of the animals: not impacted
[2]
  caspase-3 cleavage: increases caspase-3 cleavage
[3]; FIG. 27C
  percentage of neutrophils in exudates: not significantly decreased
[3]; FIG. 27D
  overall percentage of macrophages in exudates: slightly enhanced
[3]; FIG. 27E and FIG. 27F
  percentage of dead neutrophils: increased
[4]; 1 mg/kg three times a week for 3 weeks from day 32, vs isotype control, FIG. 19A
  Weight variation: continue to gain weight
[4]; FIG. 19C
  anatomic pathology scores, comprising inflammation scores: lower
[4]; histology, FIG. 19B
  colon tissue thickness: decrease of tissue thickness
  fibrotic tissue: decrease of fibrotic tissue
[5]
  mortality of PMN (percentage of dead PMN): increase the mortality of PMN; also recorded: accelerate the death of PMN
[6]
  ROS production by PMN: increase the ROS production
[7]
  tumor growth: did show an efficacy in the inhibition of the tumor growth
